# Key:
# TcUGM = target: T1, TcUGM (Trypanosoma cruzi, UniProt Q4E1W2); experiment: UV-visible spectrum of purified enzyme; HPLC of released flavin; type: binding; conditions: noncovalently bound, co-purified
# T1 construct: gene Tc00.1047053507993.160
# [1] = tested on: NC(=O)C1=CN([C@@H]2O[C@H](COP(=O)(O)OP(=O)(O)OC[C@H]3O[C@@H](n4cnc5c(N)ncnc54)[C@H](O)[C@@H]3O)[C@@H](O)[C@H]2O)C=CC1; experiment: purified protein; conditions: oxidase activity (kox), air-saturated 50 mM phosphate pH 7.0, room temperature, no UDP-Galp
# [2] = tested on: O=c1ccn([C@@H]2O[C@H](COP(=O)(O)OP(=O)(O)O[C@H]3O[C@@H]([C@H](O)CO)[C@H](O)[C@H]3O)[C@@H](O)[C@H]2O)c(=O)[nH]1; experiment: purified protein; conditions: reduced with 20 mM dithionite, 25 mM Hepes, 125 mM NaCl pH 7.5, 37°C
# [3] = tested on: NC(=O)C1=CN([C@@H]2O[C@H](COP(=O)(O)OP(=O)(O)OC[C@H]3O[C@@H](n4cnc5c(N)ncnc54)[C@H](OP(=O)(O)O)[C@@H]3O)[C@@H](O)[C@H]2O)C=CC1; experiment: purified protein; conditions: oxidase activity (kox), air-saturated 50 mM phosphate pH 7.0, room temperature, no UDP-Galp
# T1 sequence (Q4E1W2 entry or part of it): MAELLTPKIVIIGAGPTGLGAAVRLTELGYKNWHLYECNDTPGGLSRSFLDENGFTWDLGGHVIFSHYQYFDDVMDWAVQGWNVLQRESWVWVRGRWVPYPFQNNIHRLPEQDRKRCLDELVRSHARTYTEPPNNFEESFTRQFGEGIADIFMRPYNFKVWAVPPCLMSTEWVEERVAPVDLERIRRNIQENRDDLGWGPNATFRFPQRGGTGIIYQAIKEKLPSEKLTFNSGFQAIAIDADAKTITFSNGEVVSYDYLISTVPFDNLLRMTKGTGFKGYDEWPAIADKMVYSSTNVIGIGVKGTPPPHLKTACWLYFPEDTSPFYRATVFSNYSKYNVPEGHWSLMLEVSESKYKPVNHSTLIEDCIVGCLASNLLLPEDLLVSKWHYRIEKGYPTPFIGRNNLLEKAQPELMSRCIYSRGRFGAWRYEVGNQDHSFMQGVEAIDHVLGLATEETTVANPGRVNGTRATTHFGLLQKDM
Molecule,UV-visible spectrum of purified enzyme; HPLC of released flavin (TcUGM),Km [1],kcat [1],Km [2],kcat [2],kcat/Km [2],Km [3],kcat [3]
Cc1cc2nc3c(=O)[nH]c(=O)nc-3n(C[C@H](O)[C@H](O)[C@H](O)COP(=O)(O)OP(=O)(O)OC[C@H]3O[C@@H](n4cnc5c(N)ncnc54)[C@H](O)[C@@H]3O)c2cc1C [FAD],Recombinant TcUGM contained noncovalently bound flavin cofactor,–,–,–,–,–,–,–
TcUGM (Trypanosoma cruzi strain CL Brener),–,90 ± 20 µM,0.015 ± 0.002 s⁻¹,140 ± 10 µM,13.4 ± 0.3 s⁻¹,93000 ± 6000 M⁻¹ s⁻¹,15 ± 2 µM,0.030 ± 0.002 s⁻¹
